Test results as given in publication PMC4931022, “Arginine demethylation is catalysed by a subset of JmjC histone lysine demethylases” (Nature Communications, 2016).

Assays:
KDM4E(1-337) (human) = target: T1, KDM4E(1-337) (human) (UniProt B2RXH2)
T1 sequence: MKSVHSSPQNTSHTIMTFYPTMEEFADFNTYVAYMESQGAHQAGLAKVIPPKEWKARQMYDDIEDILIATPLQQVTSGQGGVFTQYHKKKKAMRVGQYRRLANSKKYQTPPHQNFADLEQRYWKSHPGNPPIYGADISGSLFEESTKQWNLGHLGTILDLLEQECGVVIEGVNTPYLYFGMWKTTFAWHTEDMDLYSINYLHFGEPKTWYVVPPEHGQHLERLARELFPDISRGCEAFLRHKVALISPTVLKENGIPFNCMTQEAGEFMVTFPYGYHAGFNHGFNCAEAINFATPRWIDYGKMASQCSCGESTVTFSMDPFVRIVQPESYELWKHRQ

KDM3A(515-1,317) (human) = target: T2, KDM3A(515-1,317) (human) (UniProt Q9Y4C1)
T2 sequence: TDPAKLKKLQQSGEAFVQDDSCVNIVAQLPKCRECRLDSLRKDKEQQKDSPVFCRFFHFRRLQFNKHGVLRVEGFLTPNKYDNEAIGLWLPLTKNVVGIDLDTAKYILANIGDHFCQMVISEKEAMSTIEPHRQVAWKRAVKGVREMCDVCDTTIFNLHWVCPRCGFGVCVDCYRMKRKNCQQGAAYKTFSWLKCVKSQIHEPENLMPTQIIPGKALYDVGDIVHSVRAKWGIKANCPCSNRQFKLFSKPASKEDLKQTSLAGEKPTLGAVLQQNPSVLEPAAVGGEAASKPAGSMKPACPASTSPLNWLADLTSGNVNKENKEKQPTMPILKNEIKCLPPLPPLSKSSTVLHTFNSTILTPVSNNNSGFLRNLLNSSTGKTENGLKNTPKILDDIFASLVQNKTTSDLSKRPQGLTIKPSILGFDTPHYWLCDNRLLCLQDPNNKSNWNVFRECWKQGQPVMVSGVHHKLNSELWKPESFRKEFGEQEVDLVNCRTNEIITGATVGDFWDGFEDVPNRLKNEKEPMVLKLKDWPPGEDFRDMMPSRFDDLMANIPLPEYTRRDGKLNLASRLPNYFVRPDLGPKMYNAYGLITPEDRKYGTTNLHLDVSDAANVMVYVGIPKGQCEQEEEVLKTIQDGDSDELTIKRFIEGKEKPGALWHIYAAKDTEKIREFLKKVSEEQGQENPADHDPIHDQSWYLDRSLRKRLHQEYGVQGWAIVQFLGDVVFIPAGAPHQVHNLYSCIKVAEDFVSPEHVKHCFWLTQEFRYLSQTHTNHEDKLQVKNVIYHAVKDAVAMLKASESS

KDM5C(1-765) (human) = target: T3, KDM5C(1-765) (human) (UniProt P41229)
T3 sequence: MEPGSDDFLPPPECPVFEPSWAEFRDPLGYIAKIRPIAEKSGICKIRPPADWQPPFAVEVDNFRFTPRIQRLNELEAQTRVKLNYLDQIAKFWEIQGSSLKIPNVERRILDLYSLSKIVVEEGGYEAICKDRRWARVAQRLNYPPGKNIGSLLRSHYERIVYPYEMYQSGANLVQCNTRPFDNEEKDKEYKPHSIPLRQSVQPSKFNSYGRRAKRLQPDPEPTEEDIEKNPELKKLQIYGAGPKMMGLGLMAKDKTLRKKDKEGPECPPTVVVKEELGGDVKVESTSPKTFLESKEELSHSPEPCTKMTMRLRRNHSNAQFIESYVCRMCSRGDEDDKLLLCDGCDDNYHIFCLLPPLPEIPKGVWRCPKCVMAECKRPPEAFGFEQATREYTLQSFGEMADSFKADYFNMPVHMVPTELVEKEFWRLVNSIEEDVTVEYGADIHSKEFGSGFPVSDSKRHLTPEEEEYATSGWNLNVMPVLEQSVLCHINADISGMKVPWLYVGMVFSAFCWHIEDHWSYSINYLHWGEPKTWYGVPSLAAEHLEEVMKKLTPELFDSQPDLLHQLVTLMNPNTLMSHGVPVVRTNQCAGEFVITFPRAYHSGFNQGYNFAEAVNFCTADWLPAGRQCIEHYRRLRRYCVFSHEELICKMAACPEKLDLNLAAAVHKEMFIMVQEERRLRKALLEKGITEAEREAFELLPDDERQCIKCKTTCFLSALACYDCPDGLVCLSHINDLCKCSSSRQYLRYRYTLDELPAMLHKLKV

[1] = target: KDM6B(1,141-1,590) (human) (UniProt O15054)
KDM6B(1,141-1,590) (human), sequence (O15054 1141-1590): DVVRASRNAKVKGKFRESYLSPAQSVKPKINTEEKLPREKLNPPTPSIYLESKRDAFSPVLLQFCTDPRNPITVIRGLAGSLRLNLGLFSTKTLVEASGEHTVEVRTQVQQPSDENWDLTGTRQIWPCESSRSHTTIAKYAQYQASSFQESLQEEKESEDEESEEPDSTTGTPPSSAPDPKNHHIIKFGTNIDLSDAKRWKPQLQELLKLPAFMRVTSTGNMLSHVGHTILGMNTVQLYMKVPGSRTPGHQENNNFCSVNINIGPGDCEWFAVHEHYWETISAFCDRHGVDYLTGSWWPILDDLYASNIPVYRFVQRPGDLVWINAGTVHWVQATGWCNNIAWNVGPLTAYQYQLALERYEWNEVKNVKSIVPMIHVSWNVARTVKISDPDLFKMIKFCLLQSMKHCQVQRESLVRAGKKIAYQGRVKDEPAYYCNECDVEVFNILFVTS

| apparent KM, formaldehyde dehydrogenase-coupled demethylation assay (KDM4E(1-337) (human)) | apparent KM, formaldehyde dehydrogenase-coupled demethylation assay (KDM3A(515-1,317) (human)) | apparent KM, formaldehyde dehydrogenase-coupled demethylation assay (KDM5C(1-765) (human)) | also measured | Substance |
| --- | --- | --- | --- | --- |
| 101 µM | 23.7 µM |  |  | H3(1-15)K9Rme2s (from UniProt P68431 2-16) (peptide) |
|  | 44.5 µM |  |  | H3(1-15)K9me2 (from UniProt P68431 2-16) (peptide) |
|  |  | 29 µM |  | H3(1-15)K4Rme2a (from UniProt P68431 2-16) (peptide) |
| 169 µM | 12.1 µM |  |  | H3(1-15)K9Rme (from UniProt P68431 2-16) (peptide) |
| 17.8 µM |  |  |  | H3(1-15)K9me3 (from UniProt P68431 2-16) (peptide) |
|  |  | 7.6 µM |  | H3(1-15)K4me3 (from UniProt P68431 2-16) (peptide) |
| 66 µM | 11.6 µM |  |  | H3(1-15)K9Rme2a (from UniProt P68431 2-16) (peptide) |
|  |  | 21.1 µM |  | H3(1-15)K4Rme2s (from UniProt P68431 2-16) (peptide) |
|  |  |  | apparent KM, formaldehyde dehydrogenase-coupled demethylation assay [1]: 676 µM | H3(14-34)K27Rme2a (from UniProt P68431 15-35) (peptide) |
|  |  |  | apparent KM, formaldehyde dehydrogenase-coupled demethylation assay [1]: 6.7 µM | H3(14-34)K27me3 (from UniProt P68431 15-35) (peptide) |
